{
  "source": "paper PMC6193735",
  "about": "“Defining LytTR Regulatory Systems”",
  "binders": {"B1": {"name": "hdrRMP (wild-type hdrRM operon direct repeat probe) (dsDNA)", "DNA 1": "TAATGGTTACCTCTTAGACATTAAAAATGACCACTTAATAGAAAAG", "DNA 2": "CTTTTCTATTAAGTGGTCATTTTTAATGTCTAAGAGGTAACCATTA"}},
  "target": "T1, HdrR (Streptococcus mutans UA140, UniProt Q8DSE1 1-133)",
  "T1 sequence": "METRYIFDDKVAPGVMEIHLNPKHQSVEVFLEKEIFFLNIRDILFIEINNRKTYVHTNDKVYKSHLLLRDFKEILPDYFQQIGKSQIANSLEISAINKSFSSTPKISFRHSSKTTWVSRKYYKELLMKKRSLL",
  "assay": "EMSA; 1 ng probe, 10-30 ug HdrR as printed, 20 ul; unlabeled wild-type competitor 50 and 200 ng; EMSA: 20 ul, 25 C, 20 min; binding buffer not printed (as ref 62); oligos annealed in 50 mM Tris-HCl pH 8.0, 10 mM MgCl2, 50 mM NaCl, 1 mM EDTA",
  "details": "protein: recombinant; tags: His6 (HdrR-His6, pET29b); chain copies: 2; label: 5' digoxigenin-11-ddUTP on forward strand (probe); blunt",
  "data": [
    {"binder": "B1", "values": [
      {"measurement": "binding result", "result": "binds"}
    ]}
  ]
}
